B1: Homo sapiens wild-type GYG1 (glycogenin-1) (enzyme, human, UniProt P46976-2 1-333, looked up)
chain: MTDQAFVTLTTNDAYAKGALVLGSSLKQHRTTRRLVVLATPQVSDSMRKVLETVFDEVIMVDVLDSGDSAHLTLMKRPELGVTLTKLHCWSLTQYSKCVFMDADTLVLANIDDLFDREELSAAPDPGWPDCFNSGVFVYQPSVETYNQLLHLASEQGSFDGGDQGILNTFFSSWATTDIRKHLPFIYNLSSISIYSYLPAFKVFGASAKVVHFLGRVKPWNYTYDPKTKSVKSEAHDPNMTHPEFLILWWNIFTTNVLPLLQQFGLVKDTCSYVNVEDVSGAISHLSLGEIPAMAQPFVSSEERKERWEQGQADYMGADSFDNIKRKLDTYLQ
modifications: autoglycosylated (smear on blots; glucose polymer on Y195)
notes: glycogenin-1 (GYG1), Homo sapiens, UniProt P46976-2; also called GYG1 (WT); source: Sf9, co-infected with GS baculovirus, purified with GS (Ni-NTA, Superose 6)
B2: Homo sapiens GYG1 Y195F mutant (enzyme, human, UniProt P46976-2 1-333, looked up)
chain: MTDQAFVTLTTNDAYAKGALVLGSSLKQHRTTRRLVVLATPQVSDSMRKVLETVFDEVIMVDVLDSGDSAHLTLMKRPELGVTLTKLHCWSLTQYSKCVFMDADTLVLANIDDLFDREELSAAPDPGWPDCFNSGVFVYQPSVETYNQLLHLASEQGSFDGGDQGILNTFFSSWATTDIRKHLPFIYNLSSISIFSYLPAFKVFGASAKVVHFLGRVKPWNYTYDPKTKSVKSEAHDPNMTHPEFLILWWNIFTTNVLPLLQQFGLVKDTCSYVNVEDVSGAISHLSLGEIPAMAQPFVSSEERKERWEQGQADYMGADSFDNIKRKLDTYLQ
notes: glycogenin-1 (GYG1), Homo sapiens, UniProt P46976-2, autoglycosylation site mutated; source: Sf9, co-infected with GS baculovirus, purified with GS (Ni-NTA, Superose 6)
B3: Homo sapiens glycogen synthase GS1 (GYS1), amino acids 1-737, N-terminal hexahistidine tag (enzyme, human, UniProt P13807 1-737, looked up)
chain: MPLNRTLSMSSLPGLEDWEDEFDLENAVLFEVAWEVANKVGGIYTVLQTKAKVTGDEWGDNYFLVGPYTEQGVRTQVELLEAPTPALKRTLDSMNSKGCKVYFGRWLIEGGPLVVLLDVGASAWALERWKGELWDTCNIGVPWYDREANDAVLFGFLTTWFLGEFLAQSEEKPHVVAHFHEWLAGVGLCLCRARRLPVATIFTTHATLLGRYLCAGAVDFYNNLENFNVDKEAGERQIYHRYCMERAAAHCAHVFTTVSQITAIEAQHLLKRKPDIVTPNGLNVKKFSAMHEFQNLHAQSKARIQEFVRGHFYGHLDFNLDKTLYFFIAGRYEFSNKGADVFLEALARLNYLLRVNGSEQTVVAFFIMPARTNNFNVETLKGQAVRKQLWDTANTVKEKFGRKLYESLLVGSLPDMNKMLDKEDFTMMKRAIFATQRQSFPPVCTHNMLDDSSDPILTTIRRIGLFNSSADRVKVIFHPEFLSSTSPLLPVDYEEFVRGCHLGVFPSYYEPWGYTPAECTVMGIPSISTNLSGFGCFMEEHIADPSAYGIYILDRRFRSLDDSCSQLTSFLYSFCQQSRRQRIIQRNRTERLSDLLDWKYLGRYYMSARHMALSKAFPEHFTYEPNEADAAQGYRYPRPASVPPSPSLSRHSSPHQSEDEEDPRNGPLEEDGERYDEDEEAAKDRRNIRAPEWPRRASCTSSTSGSKRNSVDTATSSSLSTPSEPLSPTSSLGEERN
notes: glycogen synthase GS1 (GYS1), Homo sapiens, UniProt P13807, amino acids 1-737; No cleavage of the His tag is described; the complexes were captured on Ni-NTA by it; The cryo-EM complex is called heterooctameric (D2 symmetry imposed); source: Sf9, co-infected with a GYG baculovirus, purified (Ni-NTA, Superose 6); not shown: His6 (PreScission protease-cleavable), N-terminal, kept
B4: Homo sapiens wild-type GYG2 (glycogenin-2) (enzyme, human, UniProt O15488-1 1-501, looked up)
chain: MSETEFHHGAQAGLELLRSSNSPTSASQSAGMTVTDQAFVTLATNDIYCQGALVLGQSLRRHRLTRKLVVLITPQVSSLLRVILSKVFDEVIEVNLIDSADYIHLAFLKRPELGLTLTKLHCWTLTHYSKCVFLDADTLVLSNVDELFDRGEFSAAPDPGWPDCFNSGVFVFQPSLHTHKLLLQHAMEHGSFDGADQGLLNSFFRNWSTTDIHKHLPFIYNLSSNTMYTYSPAFKQFGSSAKVVHFLGSMKPWNYKYNPQSGSVLEQGSASSSQHQAAFLHLWWTVYQNNVLPLYKSVQAGEARASPGHTLCHSDVGGPCADSASGVGEPCENSTPSAGVPCANSPLGSNQPAQGLPEPTQIVDETLSLPEGRRSEDMIACPETETPAVITCDPLSQPSPQPADFTETETILQPANKVESVSSEETFEPSQELPAEALRDPSLQDALEVDLAVSVSQISIEEKVKELSPEEERRKWEEGRIDYMGKDAFARIQEKLDRFLQ
notes: glycogenin-2 (GYG2), Homo sapiens, UniProt O15488-1, full-length; Two vectors are named (MultiBac pACEBac1 with full-length GYG2; Bac-to-Bac with wild-type GYG2 O15488-1); source: Sf9, co-infected with GS baculovirus, purified with GS (Ni-NTA, Superose 6); also isolated alone
B5: Homo sapiens GYG2 Y228F mutant (enzyme, human, UniProt O15488-1 1-501, looked up)
chain: MSETEFHHGAQAGLELLRSSNSPTSASQSAGMTVTDQAFVTLATNDIYCQGALVLGQSLRRHRLTRKLVVLITPQVSSLLRVILSKVFDEVIEVNLIDSADYIHLAFLKRPELGLTLTKLHCWTLTHYSKCVFLDADTLVLSNVDELFDRGEFSAAPDPGWPDCFNSGVFVFQPSLHTHKLLLQHAMEHGSFDGADQGLLNSFFRNWSTTDIHKHLPFIYNLSSNTMFTYSPAFKQFGSSAKVVHFLGSMKPWNYKYNPQSGSVLEQGSASSSQHQAAFLHLWWTVYQNNVLPLYKSVQAGEARASPGHTLCHSDVGGPCADSASGVGEPCENSTPSAGVPCANSPLGSNQPAQGLPEPTQIVDETLSLPEGRRSEDMIACPETETPAVITCDPLSQPSPQPADFTETETILQPANKVESVSSEETFEPSQELPAEALRDPSLQDALEVDLAVSVSQISIEEKVKELSPEEERRKWEEGRIDYMGKDAFARIQEKLDRFLQ
notes: glycogenin-2 (GYG2), Homo sapiens, UniProt O15488-1, putative autoglycosylation site mutated; also called GYG2 Y229F mutant (methods); source: baculovirus (Bac-to-Bac), purified with GS

Key:
[1] = target: B3; test: SEC; co-expressed in insect cells, captured on Ni-NTA by the His6 tag of GS, then Superose 6 16/60; SDS-PAGE and Western blot of peak fractions; conditions: both partners purified
[2] = target: the molecule itself; test: cryo-EM structure; purified GS•GYG2 complex from SEC peak fractions at ~2 mg/mL; Titan Krios 300 keV; D2 symmetry imposed
[3] = target: T1, Homo sapiens glycogen synthase GS2 (GYS2), amino acids 1-703 (human, UniProt P54840 1-703); test: SEC; co-expressed in insect cells, captured on Ni-NTA by the His6 tag of GS, then Superose 6 16/60; SDS-PAGE and Western blot of peak fractions; conditions: both partners purified
T1 construct: glycogen synthase GS2 (GYS2), Homo sapiens, UniProt P54840, amino acids 1-703; The methods say that the His tag was put at the N-terminus of 'GS' without telling GS1 and GS2 apart; source: baculovirus (Bac-to-Bac), purified with GYG2
T1 sequence (looked up): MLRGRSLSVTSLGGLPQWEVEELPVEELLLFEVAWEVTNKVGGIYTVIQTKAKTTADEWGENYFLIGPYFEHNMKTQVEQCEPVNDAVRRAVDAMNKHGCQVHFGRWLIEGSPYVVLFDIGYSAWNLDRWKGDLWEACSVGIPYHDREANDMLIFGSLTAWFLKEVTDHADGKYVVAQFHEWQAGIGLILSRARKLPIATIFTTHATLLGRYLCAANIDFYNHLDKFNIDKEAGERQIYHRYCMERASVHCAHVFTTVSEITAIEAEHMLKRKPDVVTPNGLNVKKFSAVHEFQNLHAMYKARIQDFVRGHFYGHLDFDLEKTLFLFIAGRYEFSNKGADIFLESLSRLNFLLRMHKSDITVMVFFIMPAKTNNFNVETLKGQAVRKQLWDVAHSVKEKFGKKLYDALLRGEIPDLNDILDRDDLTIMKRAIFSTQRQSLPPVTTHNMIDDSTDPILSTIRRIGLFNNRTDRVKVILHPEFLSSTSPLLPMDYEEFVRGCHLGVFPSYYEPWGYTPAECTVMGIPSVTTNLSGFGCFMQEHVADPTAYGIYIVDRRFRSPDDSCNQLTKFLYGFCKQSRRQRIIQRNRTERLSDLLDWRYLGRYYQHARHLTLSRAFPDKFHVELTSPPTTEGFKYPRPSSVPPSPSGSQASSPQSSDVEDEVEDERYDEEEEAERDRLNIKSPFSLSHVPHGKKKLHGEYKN

Row | Binder | binding result [1] | further results
1 | B1 | binds | –
2 | B2 | binds | –
3 | B3 | – | binding result [2]: binds
4 | B4 | – | binding result [3]: binds
5 | B5 | binds | –
